What was measured:
human IL-1β [1] = target: T1, human IL-1β (human, UniProt P01584 117-269); test: cell-based or functional assay
human IL-1β [2] = target: T1, human IL-1β; test: MSD-SET (solution equilibrium titration, electrochemiluminescence), 37° C., 72 h equilibrium
Experimental: MSD (Meso Scale Discovery) electrochemiluminescence assay is utilized to measure the affinity of Antibody I, Antibody II, Antibody III, and Canakinumab to human IL-1β. First, the equilibrium mixture of antibodies and human IL-1β is set up; in the mixture the antibody concentrations are kept constant at 1 pM, 10 pM, and 100 pM whereas the ligand is titrated in the concentration ranging from 0.9 nM to 0.00004 nM (2.5 times dilution between concentrations). The equilibrium mixture is set up in sealed non-binding 96-well plate at 37° C. for 72 hours.
MSD Gold Streptavidin plates are used to detect the free antibodies in the equilibrium mixture. The MSD plates are first blocked with blocking buffer (PBS+1% BSA) for 1 hour on a shaker set at 800 rpm and then washed 3 times with washing buffer PBST (PBS+0.05% Tween 20). The plates are coated with biotinylated human IL-1β followed by 3× washing with PBST. The equilibrium mixtures are added to the coated plate, incubated at room temperature with shaking for 2.5 mins and immediately washed 3× with PBST. The goat anti-human Sulfo-TAG antibody is added to the plate and incubated at room temperature for 1 hour with shaking. After three more washes, MSD Read Buffer at 1:2 concentration diluted in MilliQ water is added to the wells. Immediately afterwards, the plates are read using an MSD Sector Imager SI6000 instrument.

Avg. IC50, neutralization of human IL-1β (4 pM) in HEK-Blue IL-1β SEAP reporter cells (human IL-1β [1]): 26 pM
Kd (human IL-1β [2]): 13.5 pM
B1: Canakinumab (antibody, human IgG4 S228P, kappa, F234A L235A, V domains shown)
VH: QVQLVESGGGVVQPGRSLRLSCAASGFTFSVYGMNWVRQAPGKGLEWVAIIWYDGDNQYYADSVKGRFTISRDNSKNTLYLQMNGLRAEDTAVYYCARDLRTGPFDYWGQGTLVTVSS
VL: EIVLTQSPDFQSVTPKEKVTITCRASQSIGSSLHWYQQKPDQSPKLLIKYASQSFSGVPSRFSGSGSGTDFTLTINSLEAEDAAAYYCHQSSSLPFTFGPGTKVDIKR
notes: Comparator
